The values that follow come from the supplement of paper PMC5998384.

In series [1] the test system is HeLa Kyoto. Description: thermal stability score vs G1/S (z-score of summed log2 fold changes over temperatures); higher = more thermally stable than in G1/S.
Series [2] has as its system HeLa Kyoto. Kind of series: solubility change mitosis vs G1/S (difference of NP-40 vs SDS log2 ratios) (log2 ratio difference); higher = more soluble in mitosis.
Series [3] relates to HeLa Kyoto. Description: melting temperature (median over replicates), in situ; higher = more thermally stable.
Series [4] has as its system HeLa Kyoto. Kind of series: solubility in G1/S (NP-40 vs SDS abundance) (log2 ratio); higher = more soluble. The following applies: cell cycle stage: G1/S.
[5] abbreviates: cell cycle stage: early G1 (4.5 h after nocodazole release).
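For melting temperature (median over replicates), in situ in this document: HeLa Kyoto cells synchronized by double thymidine or nocodazole block, proteins quantified by TMT10plex mass spectrometry, three independent biological replicates.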
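For solubility change mitosis vs G1/S (difference of NP-40 vs SDS log2 ratios) in this document: synchronized HeLa Kyoto cells (double thymidine block for G1/S, nocodazole release for mitosis), protein amounts in NP-40 versus SDS lysates quantified by mass spectrometry, three biological replicates.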
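For solubility in G1/S (NP-40 vs SDS abundance) in this document: HeLa Kyoto cells arrested at G1/S by double thymidine block, proteins quantified by TMT10plex mass spectrometry in mild NP-40 versus SDS extracts, three biological replicates.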
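For thermal stability score vs G1/S (z-score of summed log2 fold changes over temperatures) in this document: synchronized HeLa Kyoto cells, proteins quantified by TMT10plex mass spectrometry, three biological replicates, mitosis taken 0.5 h after nocodazole release, G1/S directly after double thymidine block.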

On to “MSKLKVIPEKSLTNNSRIVGLLAQLEKINAEPSESDTARYVTSKILHLAQSQEKTRREMTAKGSTGMEILLSTLENTKDLQTTLNILSILVELVSAGGGRRVSFLVTKGGSQILLQLLMNASKESPPHEDLMVQIHSILAKIGPKDKKFGVKARINGALNITLNLVKQNLQNHRLVLPCLQLLRVYSANSVNSVSLGKNGVVELMFKIIGPFSKKNSSLIKVALDTLAALLKSKTNARRAVDRGYVQVLLTIYVDWHRHDNRHRNMLIRKGILQSLKSVTNIKLGRKAFIDANGMKILYNTSQECLAVRTLDPLVNTSSLIMRKCFPKNRLPLPTIKSSFHFQLPVIPVTGPVAQLYSLPPEVDDVVDESDDNDDIDVEAENETENEDDLDQNFKNDDIETDINKLKPQQEPGRTIEDLKMYEHLFPELVDDFQDYDLISKEPKPFVFEGKVRGPIVVPTAGEETSGNSGNLRKVVMKENISSKGDEGEKKSTFMDLAKEDIKDNDRTLQQQPGDQNRTISSVHGLNNDIVKALDRITLQNIPSQTAPGFTAEMKKDCSLPLTVLTCAKACPHMATCGNVLFEGRTVQLGKLCCTGVETEDDEDTESNSSVEQASVEVPDGPTLHDPDLYIEIVKNTKSVPEYSEVAYPDYFGHIPPPFKEPILERPYGVQRTKIAQDIERLIHQSDIIDRVVYDLDNPNYTIPEEGDILKFNSKFESGNLRKVIQIRKNEYDLILNSDINSNHYHQWFYFEVSGMRPGVAYRFNIINCEKSNSQFNYGMQPLMYSVQEALNARPWWIRMGTDICYYKNHFSRSSVAAGGQKGKSYYTITFTVNFPHKDDVCYFAYHYPYTYSTLQMHLQKLESAHNPQQIYFRKDVLCETLSGNSCPLVTITAMPESNYYEHICHFRNRPYVFLSARVHPGETNASWVMKGTLEYLMSNNPTAQSLRESYIFKIVPMLNPDGVINGNHRCSLSGEDLNRQWQSPSPDLHPTIYHAKGLLQYLAAVKRLPLVYCDYHGHSRKKNVFMYGCSIKETVWHTNDNATSCDVVEDTGYRTLPKILSHIAPAFCMSSCSFVVEKSKESTARVVVWREIGVQRSYTMESTLCGCDQGKYKGLQIGTRELEEMGAKFCVGLLRLKRLTSPLEYNLPSSLLDFENDLIESSCKVTSPTTYVLDEDEPRFLEEVDYSAESNDELDIELAENVGDYEPSAQEEVLSDSELSRTYLP [AGTPBP1]”, for which the thermal stability score was -0.000956 in series [1] (setting [5]) and 0.14 in series [1] (cell cycle stage: mitosis). Besides, the “solubility change mitosis (log2)” value in series [2] was -0.0731. Moreover, the melting temperature in series [3] (cell cycle stage: G1/S) worked out at 50.2 °C; in series [3] (cell cycle stage: mitosis) it was 50.3 °C. The “solubility in G1/S (log2)” value in series [4] is -0.204.
Turning to “MKKEHVLHCQFSAWYPFFRGVTIKSVILPLPQNVKDYLLDDGTLVVSGRDDPPTHSQPDSDDEAEEIQWSDDENTATLTAPEFPEFATKVQEAINSLGGSVFPKLNWSAPRDAYWIAMNSSLKCKTLSDIFLLFKSSDFITRDFTQPFIHCTDDSPDPCIEYELVLRKWCELIPGAEFRCFVKENKLIGISQRDYTQYYDHISKQKEEIRRCIQDFFKKHIQYKFLDEDFVFDIYRDSRGKVWLIDFNPFGEVTDSLLFTWEELISENNLNGDFSEVDAQEQDSPAFRCTNSEVTVQPSPYLSYRLPKDFVDLSTGEDAHKLIDFLKLKRNQQEDD [CDC123]”, the thermal stability score is 1.5 in series [1] (setting [5]) and 0.565 in series [1] (cell cycle stage: mitosis). The “solubility change mitosis (log2)” value in series [2] was -0.111. Moreover, the melting temperature was found to be 51.7 °C in series [3] (cell cycle stage: G1/S) and 50.8 °C in series [3] (cell cycle stage: mitosis). In addition, the “solubility in G1/S (log2)” value in series [4] is -0.058.
With “MGLQPLEFSDCYLDSPWFRERIRAHEAELERTNKFIKELIKDGKNLIAATKSLSVAQRKFAHSLRDFKFEFIGDAVTDDERCIDASLREFSNFLKNLEEQREIMALSVTETLIKPLEKFRKEQLGAVKEEKKKFDKETEKNYSLIDKHLNLSAKKKDSHLQEADIQVEQNRQHFYELSLEYVCKLQEIQERKKFEFVEPMLSFFQGMFTFYHQGHELAKDFNHYKMELQINIQNTRNRFEGTRSEVEELMNKIRQNPKDHKRASQFTAEGYLYVQEKRPAPFGSSWVKHYCMYRKAAKKFNMIPFEHRSGGKLGDGEVFFLKECTKRHTDSIDRRFCFDIEAADRPGVSLTMQAFSEEERKQWLEALGGKEALSHSFNTAIIPRPEGNAQLDKMGFTIIRKCISAVETRGINDQGLYRVVGVSSKVQRLLSMLMDVKTCNEVDLENSADWEVKTITSALKQYLRSLPEPLMTYELHGDFIVPAKSGSPESRVNAIHFLVHKLPEKNKEMLDILVKHLTNVSNHSKQNLMTVANLGVVFGPTLMRPQEETVAALMDLKFQNIVVEILIENHEKIFRTPPDTTFPEPTCLSASPPNAPPRQSKRQGQRTKRPVAVYNLCLELEDGDNPYPSKEDTPTSSLDSLSSPSPVTTAVPGPPGPDKNHLLADGGSFGDWASTIPGQTRSSMVQWLNPQSPTTTSSNSAVTPLSPGSSPFPFSPPATVADKPPESIRSRKARAVYPCEAEHSSELSFEIGAIFEDVQTSREPGWLEGTLNGKRGLIPQNYVKLL [ARHGAP10]”, the thermal stability score is -0.188 in series [1] (setting [5]) and -0.186 in series [1] (cell cycle stage: mitosis). Besides, in series [2], the “solubility change mitosis (log2)” value stood at 0.08. In series [3] (cell cycle stage: G1/S), this substance came in with a melting temperature of 51.7 °C. The “solubility in G1/S (log2)” value in series [4] was -0.255.
Regarding MYO5B, the thermal stability score in series [1] (setting [5]) was -0.778; in series [1] (cell cycle stage: mitosis) it was -0.163. For the same substance, the “solubility change mitosis (log2)” value in series [2] is 0.158. Besides, the melting temperature was 49.7 °C in series [3] (cell cycle stage: G1/S) and 53.1 °C in series [3] (cell cycle stage: mitosis). In series [4], the “solubility in G1/S (log2)” value is -0.588.
For the substance “MSRSAAASGGPRRPERHLPPAPCGAPGPPETCRTEPDGAGTMNKLRQSLRRRKPAYVPEASRPHQWQADEDAVRKGTCSFPVRYLGHVEVEESRGMHVCEDAVKKLKAMGRKSVKSVLWVSADGLRVVDDKTKDLLVDQTIEKVSFCAPDRNLDKAFSYICRDGTTRRWICHCFLALKDSGERLSHAVGCAFAACLERKQRREKECGVTAAFDASRTSFAREGSFRLSGGGRPAEREAPDKKKAEAAAAPTVAPGPAQPGHVSPTPATTSPGEKGEAGTPVAAGTTAAAIPRRHAPLEQLVRQGSFRGFPALSQKNSPFKRQLSLRLNELPSTLQRRTDFQVKGTVPEMEPPGAGDSDSINALCTQISSSFASAGAPAPGPPPATTGTSAWGEPSVPPAAAFQPGHKRTPSEAERWLEEVSQVAKAQQQQQQQQQQQQQQQQQQQQAASVAPVPTMPPALQPFPAPVGPFDAAPAQVAVFLPPPHMQPPFVPAYPGLGYPPMPRVPVVGITPSQMVANAFCSAAQLQPQPATLLGKAGAFPPPAIPSAPGSQARPRPNGAPWPPEPAPAPAPELDPFEAQWAALEGKATVEKPSNPFSGDLQKTFEIEL [NUMBL]”, the thermal stability score was 2.8 in series [1] (setting [5]) and 2.05 in series [1] (cell cycle stage: mitosis). Also, in series [2], the “solubility change mitosis (log2)” value was -0.00185. For the same substance, the melting temperature came to 51.9 °C in series [3] (cell cycle stage: G1/S) and 52.3 °C in series [3] (cell cycle stage: mitosis). Moreover, the “solubility in G1/S (log2)” value in series [4] is 0.205.
As to SNRNP200, the thermal stability score was 2.93 in series [1] (setting [5]) and 4.86 in series [1] (cell cycle stage: mitosis). Further, the “solubility change mitosis (log2)” value in series [2] was 0.171. Moreover, the melting temperature worked out at 50 °C in series [3] (cell cycle stage: G1/S) and 50.8 °C in series [3] (cell cycle stage: mitosis). Moreover, the “solubility in G1/S (log2)” value in series [4] is -0.756.
